# Reference: patent US12564637B2, “Nucleic acid mazzocchio and methods of making and use thereof” (The University of Hong Kong, priority 2019, dated 2026)
# Experiments:
# [1] = Diameter of the nanostructure by transmission electron microscopy (TEM); type: physicochemical; details: images analyzed by ImageJ
# Procedure: TEM was used to characterize the final DNA mazzocchio nanostructure. 5 μl of DNA mazzocchio samples were first adsorbed onto glow-discharged 400 mesh copper grids (Ted Pella, Inc.) for 1 minute. This was followed by staining with 2% uranyl acetate for 1 minute. The stained samples were washed twice by distilled water to remove excess uranyl acetate. Stained DNA mazzocchio samples on the grid were visualized using a Philips CM 100 Transmission Electron Microscope with 100 kV operating voltage. Electron photomicrographs of DNA mazzocchio were captured with magnification from 73,000×-105,000× on different positions of the grid. To experimentally determine the diameter of the DNA mazzocchio, images were analyzed by the ImageJ software.
# [2] = Doxorubicin loading/encapsulation by quenching of doxorubicin fluorescence; type: binding
# Procedure: The DNA mazzocchio (from Example 1) and DNA tetrahedron nanostructures were made through an annealing process. The multiple single-stranded DNAs were mixed in equal ratio and placed in a thermal cycler to heat up (95° C. for 5 minutes) followed by slow cooling (overnight down to 20° C.).
# 10 μM of doxorubicin was incubated with various concentrations of the DNA mazzocchio and DNA tetrahedron nanostructures (as shown on the X-axis of FIG. 2) for 1 hour at room temperature. Then, 13 μl of mixture was placed in a 384-well microtiter plate and inserted in the plate reader. The fluorescence was measured using a plate reader (Varioskan Flash by Thermo Fisher Scientific) at the following parameters: Excitation 488 nm/Emission 595 nm; bandwidth 12 nm; measurement time: 500 ms. Error bars were obtained as standard error from triplicate experiments.
# Since the intercalation of doxorubicin inhibited its fluorescence, the loading efficiency could be determined by the half maximal inhibitory concentration (IC50).
molecule,measurement,setting,value
"mazzocchio: DNA nanostructure of 16 hexagonal subunits, each composed of 12 single-stranded DNA oligonucleotides (SEQ ID NOs: 1-12) (nucleic acid, 16 hexagonal subunits assembled; Synthetic sequence - strand 1; Synthetic sequence - strand 2; Synthetic sequence - strand 3; Synthetic sequence - strand 4; Synthetic sequence - strand 5; Synthetic sequence - strand 6; Synthetic sequence - strand 7; Synthetic sequence - strand 8; Synthetic sequence - strand 9; Synthetic sequence - strand 10; Synthetic sequence - strand 11; Synthetic sequence - strand 12) chain 1: GATAGGCCGAGATCTGAGGATGCTGGCTCACGCCATTGGCTCGCGACCCCGTCCGCTAGACGTTATGCACAAGGCGTTGTCATTAGATGCTTAGGTGCTCAGGCCGTAATGAGGCCGCTTGGCTGCGTTCCTCCGCCGCTTGGGAACAGCCCCGC chain 2: TCCAGCTCTGCGGACGGGGTCGCGAGCCATTCGAGGGCT chain 3: TCGCCTGTAATACGCCTTGTGCATAACGTCTTGCCAACCC chain 4: TGCCCGTACCCTGGTGCACCTAAGCATCTAATGACTCTGCGGAAGA chain 5: TACCCCACTTTAGCGATAGCGGCCTCATTACGGCCTGTGCTACCCGTACGGA chain 6: ATCAGTACGATTGGCGTGAGCCAGCATCCTCTAGCGGCGGAGGAACGCAGCCTAGGCGGAACTCTTCGG chain 7: TCGCTAAAGTGGGGTACCGAAGAGTTCCGCCT chain 8: GATCTCGGCCTATCGCGGGGCTGTTCCC chain 9: TCGTACTGATGAGCCCTCGA chain 10: GAGCTGGAGGGTTGGC chain 11: TTACAGGCGATCTTCCGCAG chain 12: CCAGGGTACGGGCATCCGTACGGGTAGC",average diameter of the nanostructures,[1],49.30±10.37 nm
same,IC50,"[2]; 10 μM doxorubicin, 1 hour at room temperature, Ex 488 nm/Em 595 nm, triplicate, read-out: half maximal inhibitory concentration (IC50) of doxorubicin fluorescence (loading efficiency)",480 nM
same,effectiveness in carrying doxorubicin as compared to the tetrahedron,[2]; comparison of the IC50 values,three times more effective
